Source: publication PMC6520106

How the values were obtained:
[1] = target: Rab6 (Homo sapiens) (UniProt P20340); conditions: cited from earlier work
[2] = target: BicD2-CTD (C-terminal cargo binding domain of human BicD2, residues 715-804) (human); test: SEC-MALS
[3] = target: BicD2-CTD (C-terminal cargo binding domain of human BicD2, residues 715-804) (human); test: ITC

Chain of UniProt P20340 (P20340 2-208): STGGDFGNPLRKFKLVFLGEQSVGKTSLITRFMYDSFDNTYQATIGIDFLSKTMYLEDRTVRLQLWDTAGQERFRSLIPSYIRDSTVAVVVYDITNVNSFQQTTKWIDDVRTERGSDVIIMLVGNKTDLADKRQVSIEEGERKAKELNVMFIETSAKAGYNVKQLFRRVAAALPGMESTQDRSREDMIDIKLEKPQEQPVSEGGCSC

Substance | Kd [3] [µM] | dH [3] [kcal/mol] | stoichiometry N (binder per target (2:2 complex)) [2] | other results
BicD2 (from UniProt Q8TD16) | – | – | – | Kd [1]: 1 µM
BicD2-CTD (C-terminal cargo binding domain of human BicD2, residues 715-804) (domain or fragment) | – | – | – | stoichiometry N [2]: 2
Rab6^GTP (full-length human Rab6a Q72L, GTP-locked) (from UniProt P20340 1-208) (natural protein) | 12.6 | – | 1 | –

The next lines start with results.

Kd [3] [µM] | dH [3] [kcal/mol] | stoichiometry N (binder per target (2:2 complex)) [2] | Substance | other results
0.5 | -14.9 | 1 | Nup358-RBD2 (residues 2006-2443 of human Nup358) (domain or fragment) | –
3.8 | -12.8 | – | Nup358-RBD2/RanGTP complex (from UniProt P62826 1-216) | –
12 | – | – | Rab6^GTPmin (human Rab6a Q72L, residues 13-174) (from UniProt P20340 13-174) (domain or fragment) | –
